Here are results for 16 molecules from patent publication US20260207704A1, “STAPLED PEPTIDES AND METHODS THEREOF” (priority 2022, published 2026).

Assay [1] has as its system COLO320DM cells. Kind of assay: COLO320DM proliferation assay. The conditions noted are these: read-out: COLO320DM Proliferation Abs IC50. The format is cell-based, human. The procedure: Various technologies can be utilized to assess technologies of the present disclosure. For example, in some embodiments, solubility, LogD, interactions with targets, etc. of various agents such as stapled peptides were assessed using technologies described in WO 2022/261257 (e.g., those in its Examples). In some embodiments, solubility, shake flask LogD, and binding to beta-catenin were assessed. In some embodiments, an assay for assessing interactions, e.g., with beta-catenin, was fluorescence polarization as described in WO 2022/261257. In some embodiments, an assay was Nano-BRET target engagement assay that assessed beta-catenin/TCF4 engagement as described in WO 2022/261257. In some embodiments, an assay was a reporter assay as reported in Example 4 of WO 2022/261257. In some embodiments, an assay was a COLO320DM proliferation assay as reported in Example 4 of WO 2022/261257.
Among other things, provided technologies can inhibit proliferation of various cells including various cancer cells. In some embodiments, provided technologies modulate WNT specific transcription. In some embodiments, provided technologies induce cell cycle arrest. In some embodiments, provided technologies induce G1 cell cycle arrest. In some embodiments, provided technologies increased proportion of cells in G1 phase of cell cycle. As confirmed in FIG. 3, provided technologies can inhibit proliferation of COLO320DM, which is a colorectal cell line comprising various mutations such as APC, TP53, etc., modulate WNT specific transcription such as of AXIN2 and CXCL12, and induce G1 cell cycle arrest. In some embodiments, it was confirmed that provided technologies can reduce proportion of cells in S phase of cell cycle.

In assay [2] the target is beta-catenin (human). Kind of assay: fluorescence polarization; bin >200 nM.
Sequence of beta-catenin (human) (B6V8E6 146-665 limits assumed): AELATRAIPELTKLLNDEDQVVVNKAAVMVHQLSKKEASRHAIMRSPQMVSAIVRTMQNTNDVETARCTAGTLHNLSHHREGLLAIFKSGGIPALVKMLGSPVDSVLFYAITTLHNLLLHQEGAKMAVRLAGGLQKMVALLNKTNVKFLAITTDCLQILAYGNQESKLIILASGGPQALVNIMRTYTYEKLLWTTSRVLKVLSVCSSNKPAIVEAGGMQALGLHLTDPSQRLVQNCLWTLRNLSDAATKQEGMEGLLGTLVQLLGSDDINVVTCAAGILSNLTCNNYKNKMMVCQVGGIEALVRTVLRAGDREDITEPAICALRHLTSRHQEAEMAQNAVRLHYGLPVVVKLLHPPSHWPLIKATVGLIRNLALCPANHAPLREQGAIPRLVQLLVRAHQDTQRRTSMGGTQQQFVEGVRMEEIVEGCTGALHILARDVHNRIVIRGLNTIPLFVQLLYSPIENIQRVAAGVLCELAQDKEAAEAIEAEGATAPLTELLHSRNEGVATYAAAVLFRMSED
Assay [3] deals with beta-catenin (human). Put plainly: cell-based or functional assay.

*1 amine or outer side, *2 acyl side, *3 side chain or, on linkers, in order; H or OH if unused. Bridges are numbered along the chain shown (N, C = ends). Primed or numbered codes have the meaning given here. [ ]: non-standard residue; d: D form. PyrS2(6) = (S)-3-amino-1-((pent-4-en-1-yloxy)carbonyl)pyrrolidine-3-carboxylic acid, stapled with another olefin-containing amino acid residue through the olefin group, O=C(OCCCC=[*:3])N1CC[C@@](N[*:1])(C(=O)[*:2])C1; B5(4) = 2-amino-2-(pent-4-en-1-yl)hept-6-enoic acid, stapled through each of its two olefin groups with other olefin-containing amino acid residues, O=C(C(CCCC=[*:3])(CCCC=[*:4])N[*:1])[*:2]; PyrS2″ = (S)-3-amino-1-((pent-4-en-1-yloxy)carbonyl)pyrrolidine-3-carboxylic acid (olefin stapling residue), C=CCCCOC(=O)N1CC[C@@](N[*:1])(C(=O)[*:2])C1; PyrS2 = (S)-3-amino-1-((pent-4-en-1-yloxy)carbonyl)pyrrolidine-3-carboxylic acid, olefin staple residue, C=CCCCOC(=O)N1CC[C@@](N[*:1])(C(=O)[*:2])C1; PyrS2(5) = (S)-3-amino-1-((pent-4-en-1-yloxy)carbonyl)pyrrolidine-3-carboxylic acid, C=CCCCOC(=O)N1CC[C@@](N[*:1])(C(=O)[*:2])C1; B5″ = 2-amino-2-(pent-4-en-1-yl)hept-6-enoic acid (bis-olefin stapling residue), C=CCCCC(CCCC=C)(N[*:1])C(=O)[*:2]; B5(5) = 2-amino-2-(pent-4-en-1-yl)hept-6-enoic acid (two olefin arms), C=CCCCC(CCCC=C)(N[*:1])C(=O)[*:2]; 2F3MeF(3) = aromatic amino acid residue, Cc1cccc(C[C@H](N[*:1])C(=O)[*:2])c1F; 2F3MeF″ = aromatic residue, Cc1cccc(C[C@H](N[*:1])C(=O)[*:2])c1F; Phe(3-COOH) = N[C@@H](Cc1cccc(C(=O)O)c1)C(=O)O; 2F3MeF = Cc1cccc(C[C@H](N[*:1])C(=O)[*:2])c1F; Bta = N[C@@H](Cc1csc2ccccc12)C(=O)O; Lys(iPr) = CC(C)NCCCC[C@H](N)C(=O)O; αAllylPro = C=CC[C@@]1(C(=O)O)CCCN1; BztA = aromatic amino acid residue; 4mampiperidine = not defined here; tBuAla = CC(C)(C)C[C@H](N)C(=O)O; 3Thi = N[C@@H](Cc1ccsc1)C(=O)O; Cha = N[C@@H](CC1CCCCC1)C(=O)O; TriAzLys(3) = not defined here; hSer = N[C@@H](CCO)C(=O)O; BztA″ = aromatic residue; Nle = CCCC[C@H](N)C(=O)O; Orn = NCCC[C@H](N)C(=O)O; TfeGA = not defined here; AsnR = not defined here; GlnR = not defined here; sAla = not defined here; PL3 = not defined here; B5 = not defined here

As to `CC(=O)N1CCC[C@]12CC=CCCCC1(CCCC=CCCCOC(=O)N3CC[C@@]4(C3)NC(=O)[C@H](CCCCNC(=O)CC[C@@H](C(=O)N[C@@H](C)C(N)=O)NC(=O)[C@H](Cc3csc5ccccc35)NC(=O)[C@H](Cc3ccccn3)NC4=O)NC(=O)[C@H](Cc3ccccc3)NC(=O)[C@H](C)NC(=O)C(C)(C)NC(=O)[C@H](Cc3cccc(C(=O)O)c3)NC(=O)[C@H](CC(=O)O)NC1=O)NC(=O)[C@H](CC(C)(C)C)NC(=O)[C@H](CC(=O)O)NC2=O` (relative stereo) [I-299, Ac-PL3-Asp-Npg-B5-Asp-3COOHF-Aib-Ala-Phe-Lys*3-PyrS2-2PyrA-BztA-GlnR*3-Ala-NH2], the IC50 in assay [1] was in the range of 10000 to 20000 nM.
Still for that read-out and setting: then `CCCC[C@@H]1NC(=O)[C@H](CC(=O)O)NC(=O)[C@]2(CC=CCCCC3(CCCC=CCCCOC(=O)N4CC[C@@]5(C4)NC(=O)[C@H](CCCCNC(=O)CC[C@@H](C(=O)N[C@@H](C)C(N)=O)NC(=O)[C@H](Cc4csc6ccccc46)NC(=O)[C@H](Cc4ccsc4)NC5=O)NC(=O)[C@H](Cc4ccccc4)NC(=O)[C@H](C)NC(=O)C(C)(C)NC(=O)[C@H](Cc4cccc(C(=O)O)c4)NC(=O)[C@H](CC(=O)O)NC3=O)NC1=O)CCCN2C(C)=O` (relative stereo) [I-245, Ac-PL3-Asp-nLeu-B5-Asp-3COOHF-Aib-Ala-Phe-Lys*3-PyrS2-3Thi-BztA-GlnR*3-Ala-NH2], with not above 10000 nM; and `CC(=O)N1CCC[C@]12CC=CCCCC1(CCCC=CCCCOC(=O)N3CC[C@@]4(C3)NC(=O)[C@H](CCCCNC(=O)CC[C@@H](C(=O)N[C@@H](C)C(N)=O)NC(=O)[C@H](Cc3csc5ccccc35)NC(=O)[C@H](Cc3ccsc3)NC4=O)NC(=O)[C@H](Cc3ccccc3)NC(=O)[C@H](C)NC(=O)C(C)(C)NC(=O)[C@H](Cc3cccc(C(=O)O)c3)NC(=O)[C@H](CC(=O)O)NC1=O)NC(=O)[C@H](CCCN1CCOCC1)NC(=O)[C@H](CC(=O)O)NC2=O` (relative stereo) [I-313, Ac-PL3-Asp-MorphNva-B5-Asp-3COOHF-Aib-Ala-Phe-Lys*3-PyrS2-3Thi-BztA-GlnR*3-Ala-NH2], with more than 20000 nM.

B1: I-83 (peptide)
peptide: Ac-[PL3]D[tBuAla][B5][hSer][Phe(3-COOH)]AAFK[PyrS2″][3Thi][BztA][GlnR]A-NH2
modifications: staple 1-4 (inferred); bridge 10-14; not fully specified (residue 10, bridges); printed as Ac-PL3-Asp-Npg-B5-Hse-3COOHF-Ala-Ala-Phe-Lys*3-PyrS2-3Thi-BztA-GlnR*3-Ala-NH2; reading uncertain
In turn, B1 displayed an IC50 in assay [2] of less than 750 nM.

B2: I-131 (peptide)
peptide: Ac-[αAllylPro]D[tBuAla][B5]D[Phe(3-COOH)][GlnR]AFL[PyrS2″][2F3MeF″][BztA″][GlnR](29N2spiroundecane)A-NH2
modifications: reading uncertain; also: staple links not given here, printed as Ac-PL3-Asp-Npg-B5-Asp-3COOHF-GlnR-Ala-Phe-Leu-PyrS2-2F3MeF-BztA-[29N2spiroundecane]GlnR-Ala-NH2
B2 yielded an IC50 in assay [2] of less than 750 nM. In assay [3], this molecule gave a NanoBRET Abs IC50 of more than 10000 nM.

B3: I-27 (peptide)
peptide: Ac-[αAllylPro]D[tBuAla][B5(4)]D[Phe(3-COOH)][sAla]AF[TriAzLys(3)][PyrS2(6)][3Thi][Bta]Q-NH2
modifications: triazole 7-10; not fully specified (bridges); printed as Ac-PL3-Asp-Npg-B5-Asp-3COOHF-sAla*3-Ala-Phe-TriAzLys*3-PyrS2-3Thi-BztA-Gln-NH2; reading uncertain
In the case of B3, in assay [2], the IC50 is less than 750 nM.

B4: I-96 (peptide)
peptide: Ac-[αAllylPro]D[tBuAla][B5(4)]D[Phe(3-COOH)][GlnR]AFL[PyrS2″][2F3MeF(3)][BztA][GlnR](4mampiperidine)A-NH2
modifications: staple 1-4 (inferred); not fully specified (bridges); printed as Ac-PL3-Asp-Npg-B5-Asp-3COOHF-GlnR-Ala-Phe-Leu-PyrS2-2F3MeF-BztA-[4mampiperidine]GlnR-Ala-NH2; reading uncertain
As to B4, the IC50 in assay [2] is less than 750 nM.

B5: I-87 (peptide)
peptide: Ac-[PL3]D[tBuAla][B5][hSer][Phe(3-COOH)]SAFK[PyrS2(5)][3Thi][BztA][GlnR]A-NH2
modifications: staple 1-4 (inferred); bridge 10-14; not fully specified (residue 10, bridges); printed as Ac-PL3-Asp-Npg-B5-Hse-3COOHF-Ser-Ala-Phe-Lys*3-PyrS2-3Thi-BztA-GlnR*3-Ala-NH2; reading uncertain; also: Lys10 and GlnR14 marked *3
In the case of B5, the IC50 in assay [2] was less than 750 nM.

B6: I-134 (peptide)
peptide: Ac-[αAllylPro]D[tBuAla][B5]D[Phe(3-COOH)][GlnR]AFL[PyrS2][2F3MeF][Bta][GlnR](29N2spiroundecane)A-NH2
modifications: staple 1-4, 4-11 (inferred); not fully specified; printed as Ac-PL3-Asp-Npg-B5-Asp-3COOHF-GlnR-Ala-Phe-Leu-PyrS2-2F3MeF-BztA-[29N2spiroundecane]GlnR-Ala-NH2; reading uncertain; also: staple C=C reduced to CH2-CH2
In assay [2], B6 gave an IC50 of less than 750 nM. Also, the NanoBRET Abs IC50 in assay [3] was more than 10000 nM.

B7: I-41 (peptide)
peptide: Ac-[αAllylPro]D[tBuAla][B5(5)]D[Phe(3-COOH)]AAF[AsnR][PyrS2(5)][3Thi][Bta][Orn]-NH2
modifications: bridge 10-14; reading uncertain; also: PL3/B5/PyrS2 staple links not placed, printed as Ac-PL3-Asp-Npg-B5-Asp-3COOHF-Ala-Ala-Phe-AsnR*3-PyrS2-3Thi-BztA-Orn*3-NH2
Consider B7, for which, in assay [2], the IC50 was less than 750 nM.

B8: I-149 (peptide)
peptide: Ac-[αAllylPro]N[Cha][B5″]DQ[Lys(iPr)]AF[GlnR][PyrS2″]F[Bta]K-NH2
modifications: bridge 10-14; reading uncertain; also: PL3-B5 and PyrS2 links not placed, printed as Ac-PL3-Asn-Cha-B5-Asp-Gln-iPrLys-Ala-Phe-GlnR*3-PyrS2-Phe-BztA-Lys*3-NH2
On to B8, for which, in assay [2], the IC50 was less than 750 nM. Besides, the NanoBRET Abs IC50 in assay [3] was more than 10000 nM.

B9: I-117 (peptide)
peptide: Ac-[αAllylPro]D[tBuAla][B5″]N[TfeGA]AAFK[PyrS2″][2F3MeF][Bta][GlnR]A-NH2
modifications: bridge 10-14; not fully specified (bridges); reading uncertain; also: Lys*3 and GlnR*3 marked *3
In assay [2], B9 returned an IC50 of less than 750 nM.

B10: I-36 (peptide)
peptide: Ac-[αAllylPro]D[tBuAla][B5(5)]D[Phe(3-COOH)]AAF[AsnR][PyrS2(5)][3Thi][Bta]K-NH2
modifications: bridge 10-14; not fully specified (bridges); printed as Ac-PL3-Asp-Npg-B5-Asp-3COOHF-Ala-Ala-Phe-AsnR*3-PyrS2-3Thi-BztA-Lys*3-NH2; reading uncertain
Take B10: in assay [2], the IC50 is less than 750 nM.

B11: I-143 (peptide)
peptide: Ac-[αAllylPro]N[tBuAla][B5]D[Phe(3-COOH)][Nle]AFK[PyrS2″][2F3MeF″][BztA″][GlnR]LS-NH2
modifications: bridge 10-14; not fully specified (bridges); printed as Ac-PL3-Asn-Npg-B5-Asp-3COOHF-nLeu-Ala-Phe-Lys*3-PyrS2-2F3MeF-BztA-GlnR*3-Leu-Ser-NH2; reading uncertain; also: Lys10 and GlnR14 marked *3
In turn, B11 had an IC50 in assay [2] of less than 750 nM. This molecule also yielded a NanoBRET Abs IC50 in assay [3] of more than 10000 nM.

B12: I-148 (peptide)
peptide: Ac-[αAllylPro]N[Cha][B5″]DQ[hSer]AF[GlnR][PyrS2″]F[Bta]K-NH2
modifications: bridge 10-14; reading uncertain; also: PL3-B5 and PyrS2 links not placed, printed as Ac-PL3-Asn-Cha-B5-Asp-Gln-Hse-Ala-Phe-GlnR*3-PyrS2-Phe-BztA-Lys*3-NH2
In turn, B12 gave an IC50 in assay [2] of less than 750 nM.

B13: I-142 (peptide)
peptide: Ac-[αAllylPro]N[tBuAla][B5]D[Phe(3-COOH)]AAFK[PyrS2(5)][2F3MeF″][BztA″][GlnR]LS-NH2
modifications: bridge 10-14; not fully specified (bridges); printed as Ac-PL3-Asn-Npg-B5-Asp-3COOHF-Ala-Ala-Phe-Lys*3-PyrS2-2F3MeF-BztA-GlnR*3-Leu-Ser-NH2; reading uncertain; also: Lys10 and GlnR14 marked *3
The molecule B13 yielded an IC50 in assay [2] of less than 750 nM. This molecule registered a NanoBRET Abs IC50 (bin >3.0 uM) in assay [3] of less than 10000 nM.
